Laboratory results taken from patent publication US20110262446A1 (published 2011).

Key:
[1] = biological target: T1, IGF-II (amino acids 1-67) (human, UniProt P01344 25-91); test: SPR (Biacore), germlined IgG
T1 construct: mature; also called IGF-II (67aa); IGF2

[2] = biological target: T1, IGF-II (amino acids 1-67); test: cell-based or functional assay
[3] = biological target: T1, IGF-II (amino acids 1-67); test: SPR (Biacore), non-germlined IgG
IGF binding protein BP2 = biological target: T2, IGF binding protein BP2 (UniProt P18065 36-325); test: SPR (Biacore T100): control with no IGF-II injected before the BP
T2 construct: also called IGF BP2
T2 sequence (looked up): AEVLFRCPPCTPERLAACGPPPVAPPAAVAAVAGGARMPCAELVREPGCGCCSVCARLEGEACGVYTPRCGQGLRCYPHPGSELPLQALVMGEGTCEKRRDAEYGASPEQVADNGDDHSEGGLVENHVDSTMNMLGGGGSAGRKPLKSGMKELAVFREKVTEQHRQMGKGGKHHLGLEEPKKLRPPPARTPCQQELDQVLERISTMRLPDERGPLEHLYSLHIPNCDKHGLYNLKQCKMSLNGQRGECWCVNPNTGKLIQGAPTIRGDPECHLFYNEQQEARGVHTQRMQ
Method: (§1) BIACORE® T100 and a CM5 chip coated with Protein G were utilised to set up following assay. Approximately 1000 RU of Protein G′ was immobilized on a CM5 chip using standard amine chemistry immobilization method. Entire assay consisted of three sequential injection of following four reagents 1) Candidate IgG was injected onto Protein G′ at 10 ug/ml at 5 ul/min for 180 sec.

IGF binding protein BP4 = biological target: T3, IGF binding protein BP4 (UniProt P22692 22-258); test: as above
T3 construct: also called IGF BP4
T3 sequence (looked up): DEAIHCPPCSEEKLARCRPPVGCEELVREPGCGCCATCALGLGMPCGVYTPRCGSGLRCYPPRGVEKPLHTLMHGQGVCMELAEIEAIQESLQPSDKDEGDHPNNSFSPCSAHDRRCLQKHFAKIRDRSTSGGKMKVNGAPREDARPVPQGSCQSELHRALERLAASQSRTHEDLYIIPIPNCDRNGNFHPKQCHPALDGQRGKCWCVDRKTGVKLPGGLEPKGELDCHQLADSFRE
Method: as §1

[4] = biological target: T1, IGF-II (amino acids 1-67); test: SPR (Biacore T100): IgG captured on Protein G', ligand bound, then BP injected; competitor BP2
Method: as §1

[5] = biological target: T1, IGF-II (amino acids 1-67); test: SPR (Biacore T100): IgG captured on Protein G', ligand bound, then BP injected; competitor BP4
Method: as §1

[6] = biological target: T1, IGF-II (amino acids 1-67); test: SPR (Biacore T100): IgG captured on Protein G', IGF-II injected
Method: as §1

T1 sequence (P01344 25-91): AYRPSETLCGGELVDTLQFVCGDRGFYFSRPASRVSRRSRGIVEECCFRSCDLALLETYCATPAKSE

B1: X0008-A01 (germlined M0064-F02 IgG) (antibody, V domains shown)
VH: EVQLLESGGGLVQPGGSLRLSCAASGFTFSNYIMWWVRQAPGKGLEWVSVISSSGGMTRYADSVKGRFTISRDNSKNTLYLQMNSLRAEDTAVYYCARDNGDYVGEKGFDIWGQGTMVTVSS
VL: DIQMTQSPSSLSASVGDRVTITCRASQSISNYLNWYQQKPGKAPKLLIYTASTLQSGVPSRFSGSGSGTDFTLTISSLQPEDFATYYCQQSYNSPWTFGQGTKVEIK
With B1 the Kd [1] was 0.023 nM.

B2: M0064-E04 IgG (antibody, V domains shown)
VH: EVQLLESGGGLVQPGGSLRLSCAASGFTFSVYDMNWVRQAPGKGLEWVSSISSSGGGTLYADSVKGRFTISRDNSKNTLYLQMNSLRAEDTAVYYCARDSDTSSYYWYYDLWGRGTLVTVSS
VL: DIQMTQSPSSLSASVGDRVTITCQASHDISNYLNWYQQKPGKAPKLLIYAASRLQSGVPSRFSGGGSGTDFSLTISSLQAEDFATYYCQQSYSFPRTFGQGTNLEIK
notes: IgG form of the Fab; also called non-germlined M0064-E04
B2 was tested, and the “IC50, IGF-II stimulated BaF3 cell proliferation (Guava ViaCount)” value [2] was about 19 nM, the Kd [3] was 0.52 nM and the binding result (IGF binding protein BP2) was “no binding (tested: 50 nM)”. The binding result (IGF binding protein BP4) was “no binding (tested: 50 nM)”, the “competition score (0 = does not compete significantly, 5 = competes strongly)” value [4] was 5 score 0-5 and the “competition score (0 = does not compete significantly, 5 = competes strongly)” value [5] was 5 score 0-5.

B3: M0080-G03 IgG (antibody, V domains shown)
VH: EVQLLESGGGLVQPGGSLRLSCAASGFTFSFYQMMWVRQAPGKGLEWVSSISPSGGRTYYADSVKGRFTISRDNSKNTLYLQMNSLRAEDTAVYYCAKDIGLGYCSSTSCYTGTPLDYWGQGTLVTVSS
VL: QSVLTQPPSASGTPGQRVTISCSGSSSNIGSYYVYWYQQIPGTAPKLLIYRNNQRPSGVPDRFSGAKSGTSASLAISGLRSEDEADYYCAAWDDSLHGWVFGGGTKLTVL
notes: also called 566A-M0080-G03; 566A-X0004-A02
B3: no binding (tested: 50 nM) [6].

B4: 566A-M0073-C11 IgG (antibody, V domains shown)
VH: EVQLLESGGGLVQPGGSLRLSCAASGFTFSPYDMWWVRQAPGKGLEWVSSISSSGGITAYADSVKGRFTISRDNSKNTLYLQMNSLRAEDTAVYYCARAGYSSSWGYYYYGMDVWGQGTTVTVSS
VL: QSALTQPPSVSVSPGQTASITCSGDRLGDKYASWYQQKPGQSPVLVIYQDTKRPSGIPERFSGSNSGSTATLTISGTQAMDEADYYCQAWDSSTVVFGGGTKLTVL
notes: also called 566A-X0003-B02
B4: no binding (tested: 50 nM) [6].
